From patent US20240091321A1 (AMICUS THERAPEUTICS, published 2024)

Assays:
CI-MPR receptor [1] = target: T1, CI-MPR receptor; assay: CIMPR plate binding assay, bound NAGLU activity (4MU released)
T1 construct: also called IGF2/CI-MPR; IGF2/Mannose-6-phosphate receptor

CI-MPR receptor [2] = target: T1, CI-MPR receptor; assay: CI-MPR-coated plate binding assay, conditioned media of HEK 293 cells, bound TPP1 activity
Protocol: (§1) In the binding assay, a plate was first coated with CI-MPR. Next, a sample containing the enzyme of interest was incubated on the plate. The plate was washed so that only substances bound to CI-MPR remain on the plate. The amount of the enzyme of interest bound to the plate was determined by enzyme assay or by mass spec. The binding assay was performed at a range of concentrations of the enzyme of interest in order to obtain a binding curve.

CI-MPR receptor [3] = target: T1, CI-MPR receptor; assay: CIMPR binding assay, PPT1 conditioned media, dilution starting at 50 nM, bound PPT1 activity; the table prints no units, units of the axes
CI-MPR receptor [4] = target: T1, CI-MPR receptor; assay: CIMPR binding assay, PPT1 conditioned media, curves starting at 25 nM, bound PPT1 activity; the table prints no units, units of the axes
CI-MPR receptor [5] = target: T1, CI-MPR receptor; assay: CI-MPR plate-binding assay in presence of M6P, bound PPT1 by activity assay
Protocol: as §1
CI-MPR plate-binding assay performed as previously described, then amount bound was determined by PPT1 activity assay.

B1: WT NAGLU (enzyme)
enzyme: DEAREAAAVRALVARLLGPGPAADFSVSVERALAAKPGLDTYSLGGGGAARVRVRGSTGVAAAAGLHRYLRDFCGCHVAWSGSQLRLPRPLPAVPGELTEATPNRYRYYQNVCTQSYSFVWWDWARWEREIDWMALNGINLALAWSGQEAIWQRVYLALGLTQAEINEFFTGPAFLAWGRMGNLHTWDGPLPPSWHIKQLYLQHRVLDQMRSFGMTPVLPAFAGHVPEAVTRVFPQVNVTKMGSWGHFNCSYSCSFLLAPEDPIFPIIGSLFLRELIKEFGTDHIYGADTFNEMQPPSSEPSYLAAATTAVYEAMTAVDTEAVWLLQGWLFQHQPQFWGPAQIRAVLGAVPRGRLLVLDLFAESQPVYTRTASFQGQPFIWCMLHNFGGNHGLFGALEAVNGGPEAARLFPNSTMVGTGMAPEGISQNEVVYSLMAELGWRKDPVPDLAAWVTSFAARRYGVSHPDAGAAWRLLLRSVYNCSGEACRGHNRSPLVRRPSLQMNTSIWYNRSDVFEAWRLLLTSAPSLATSPAFRYDLLDLTRQAVQELVSLYYEEARSAYLSKELASLLRAGGVLAYELLPALDEVLASDSRFLLGSWLEQARAAAVSEAEADFYEQNSRYQLTLWGPEGNILDYANKQLAGLVANYYTPRWRLFLEALVDSVAQGIPFQQHQFDKNVFQLEQAFVLSKQRYPSQPRGDTVDLAKKIFLKYYPRWVAGSW
notes: also called untagged NAGLU
B1 gave a Kd (CI-MPR receptor [1]) of 325 nM.

B2: Natural hTTP1 (enzyme)
enzyme: SYSPEPDQRRTLPPGWVSLGRADPEEELSLTFALRQQNVERLSELVQAVSDPSSPQYGKYLTLENVADLVRPSPLTLHTVQKWLLAAGAQKCHSVITQDFLTCWLSIRQAELLLPGAEFHHYVGGPTETHVVRSPHPYQLPQALAPHVDFVGGLHRFPPTSSLRQRPEPQVTGTVGLHLGVTPSVIRKRYNLTSQDVGSGTSNNSQACAQFLEQYFHDSDLAQFMRLFGGNFAHQASVARVVGQQGRGRAGIEASLDVQYLMSAGANISTWVYSSPGRHEGQEPFLQWLMLLSNESALPHVHTVSYGDDEDSLSSAYIQRVNTELMKAAARGLTLLFASGDSGAGCWSVSGRHQFRPTFPASSPYVTTVGGTSFQEPFLITNEIVDYISGGGFSNVFPRPSYQEEAVTKFLSSSPHLPPSSYFNASGRAYPDVAALSDGYWVVSNRVPIPWVSGTSASTPVFGGILSLINEHRILSGRPPLGFLNPRLYQQHGAGLFDVTRGCHESCLDEEVEGQGFCSGPGWDPVTGWGTPNFPALLKTLLNP
notes: also called WT TPP1; TPP1 wildtype
For B2, the “EC50 (read off the curve)” value (CI-MPR receptor [2]) was roughly 0.4 nM.

B3: PPT1-101 (enzyme)
fusion protein: MKLSLVAAMLLLLWVALLLLSAARAAASRTLCGGELVDTLQFVCGDRGFLFSRGGGGSRGILEECCFRDCDLALLETYCATPARSEGGGGSGGGGSRPRAVPTQDPPAPLPLVIWHGMGDSCCNPLSMGAIKKMVEKKIPGIYVLSLEIGKTLMEDVENSFFLNVNSQVTTVCQALAKDPKLQQGYNAMGFSQGGQFLRAVAQRCPSPPMINLISVGGQHQGVFGLPRCPGESSHICDFIRKTLNAGAYSKVVQERLVQAEYWHDPIKEDVYRNHSIFLADINQERGINESYKKNLMALKKFVMVKFLNDSIVDPVDSEWFGFYRSGQAKETIPLQETSLYTQDRLGLKEMDNAGQLVFLATEGDHLQLSEEWFYAHIIPFLG
Work on B3 yielded a Kd (CI-MPR receptor [3]) of 4.12 nM and a Kd (CI-MPR receptor [4]) of 4.57 nM.

B4: PPT1-104 (enzyme)
fusion protein: DPPAPLPLVIWHGMGDSCCNPLSMGAIKKMVEKKIPGIYVLSLEIGKTLMEDVENSFFLNVNSQVTTVCQALAKDPKLQQGYNAMGFSQGGQFLRAVAQRCPSPPMINLISVGGQHQGVFGLPRCPGESSHICDFIRKTLNAGAYSKVVQERLVQAEYWHDPIKEDVYRNHSIFLADINQERGINESYKKNLMALKKFVMVKFLNDSIVDPVDSEWFGFYRSGQAKETIPLQETSLYTQDRLGLKEMDNAGQLVFLATEGDHLQLSEEWFYAHIIPFLGRPRAVPTQGGSGSGSTSSSRTLCGGELVDTLQFVCGDRGFLFSRGGGGSRGILEECCFRECDLALLETYCATPARSE
Binder B4 has a Kd (CI-MPR receptor [3]) of 3.41 nM and a Kd (CI-MPR receptor [4]) of 3.87 nM.

B5: PPT1-29 (BiP2aa-vIGF2-PPT1) (enzyme)
chain: MKLSLVAAMLLLLWVALLLLSAARAAASRTLCGGELVDTLQFVCGDRGFLFSRPASRVSRRSRGIVEECCFRSCDLALLETYCATPARSEGGGGSGGGGSRPRAVPTQDPPAPLPLVIWHGMGDSCCNPLSMGAIKKMVEKKIPGIYVLSLEIGKTLMEDVENSFFLNVNSQVTTVCQALAKDPKLQQGYNAMGFSQGGQFLRAVAQRCPSPPMINLISVGGQHQGVFGLPRCPGESSHICDFIRKTLNAGAYSKVVQERLVQAEYWHDPIKEDVYRNHSIFLADINQERGINESYKKNLMALKKFVMVKFLNDSIVDPVDSEWFGFYRSGQAKETIPLQETSLYTQDRLGLKEMDNAGQLVFLATEGDHLQLSEEWFYAHIIPFLG
notes: Whole entry; it includes the modified BiP signal peptide
For B5, the Bmax (CI-MPR receptor [5]) was 8.98 and the “Relative Kd” value (CI-MPR receptor [5]) was 0.107.

B6: PPT1-32 (wt-PPT1-vIGF2-32) (enzyme)
chain: B4 fusion protein
notes: Whole entry; it includes the native PPT1 signal peptide
With B6 the Bmax (CI-MPR receptor [5]) was 6.05 and the “Relative Kd” value (CI-MPR receptor [5]) was 0.121.

B7: PPT1-33 (wt-PPT1-vIGF2-8Q) (enzyme)
chain: DPPAPLPLVIWHGMGDSCCNPLSMGAIKKMVEKKIPGIYVLSLEIGKTLMEDVENSFFLNVNSQVTTVCQALAKDPKLQQGYNAMGFSQGGQFLRAVAQRCPSPPMINLISVGGQHQGVFGLPRCPGESSHICDFIRKTLNAGAYSKVVQERLVQAEYWHDPIKEDVYRNHSIFLADINQERGINESYKKNLMALKKFVMVKFLNDSIVDPVDSEWFGFYRSGQAKETIPLQETSLYTQDRLGLKEMDNAGQLVFLATEGDHLQLSEEWFYAHIIPFLGRPRAVPTQGGSGSGSTSSSRTLCGGELVDTLQFVCGDRGFLFSRPASRVSRRSRGIVEECCFRECDLALLETYCATPARSE
notes: as for B6
B7 was tested, and the Bmax (CI-MPR receptor [5]) was 9.19 and the “Relative Kd” value (CI-MPR receptor [5]) was 0.143.
